For one molecule, Kd results are on record in publication PMC11686378.

In general, Kd refers to the free concentration of one partner at which half of the binding sites on the other are occupied at equilibrium, for simple one-to-one binding. Lower therefore signals a tighter complex.

This experiment deals with Replication Protein A (RPA) heterotrimer from Pyrococcus abyssi, wild type (Pyrococcus abyssi). As to the kind of experiment: BLI; RPA or RPA^ΔWH nucleoprotein filaments on a 3'-TEG-biotin 50-nt ssDNA held on streptavidin sensors; PriSL (1.56-100 nM) or PolD (15.62-1000 nM) in solution; steady-state analysis; 25 °C, buffer E with 0.2 mg/ml BSA. A general note: In BLI a coated tip is dipped into the sample, and binding shifts an interference pattern.

B1: DNA primase PriSL (PriS-PriL heterodimer) from P. abyssi, in solution (complex)
chain 1: MLLREVTKEERKEFYSNEWNAKQIPDFILQNLDKREFGFDHTGEGPSDRKNSYTDVRDLEDYIKATAPYAVYSSVAFYEKPQEMEGWLGAELVFDIDAKDLPLRRCNHEPGKVCPICLNDAKEIARDTLIVLKEELGFEDVHVVYSGRGYHIRVMDGWALSLDSKSRERILSFISASEIEDHSEFRKMLLERRGWFVLNHGYPRVFRLRFGYFILRVKVEHLINFGIRKNIAKRILDNKETIYEEFVRKGILAAFPDGVGIESLAKLFALSTRFSKAYFDGRVTVDLKRILRLPSTLHSKVGLIAKYIGNNERDVMRFNPFKHAVPKFRRKEVKEEYKRFLEENF
chain 2: MLDPFSEKAKELLKEFGSINDFLNSIPRIVDVEEVIERVKIASDRKLLEGFVDIEDIKDLAQFYALLGALSYSPYGLELELVKKANILLYSERIRREKEIRPEEISLRINKAIEFPIDDLKKIERVFGKLPEYTIHLAEFLDLIPGERLSEYYIYNGNVYLRKEDLIKVWMKAFERNIEKSVNMLYEIRDELPGFFREVLGGIKEVAEQEFGKSGEVKAGTLRPDLFPPCVKNALKGVPQGLRNYAITVLLTSFLSYARICPNPPRRNVRVKDCIDDIRIITDEILPLIIEAANRCSPPLFEDQPNEIKNIWYHLGFGYTANPKLEDSGNSTWYFPPNCDKIRANAPQLCTPDKHCKYVRNPLTYYLRRLYLEGRKNASKGGNERGEKRVLQQ
For the molecule B1, the Kd was 24 nM.
